Literature values, collected in paper PMC4309608.

Key:
[1] = target: E-cadherin (Homo sapiens) (UniProt P12830)
Met (Homo sapiens) = Met (Homo sapiens) (UniProt P08581)
[2] = target: TgRON2 (Toxoplasma gondii) (UniProt B6KV60)
UniProt B6KV60, sequence (B6KV60 25-1277): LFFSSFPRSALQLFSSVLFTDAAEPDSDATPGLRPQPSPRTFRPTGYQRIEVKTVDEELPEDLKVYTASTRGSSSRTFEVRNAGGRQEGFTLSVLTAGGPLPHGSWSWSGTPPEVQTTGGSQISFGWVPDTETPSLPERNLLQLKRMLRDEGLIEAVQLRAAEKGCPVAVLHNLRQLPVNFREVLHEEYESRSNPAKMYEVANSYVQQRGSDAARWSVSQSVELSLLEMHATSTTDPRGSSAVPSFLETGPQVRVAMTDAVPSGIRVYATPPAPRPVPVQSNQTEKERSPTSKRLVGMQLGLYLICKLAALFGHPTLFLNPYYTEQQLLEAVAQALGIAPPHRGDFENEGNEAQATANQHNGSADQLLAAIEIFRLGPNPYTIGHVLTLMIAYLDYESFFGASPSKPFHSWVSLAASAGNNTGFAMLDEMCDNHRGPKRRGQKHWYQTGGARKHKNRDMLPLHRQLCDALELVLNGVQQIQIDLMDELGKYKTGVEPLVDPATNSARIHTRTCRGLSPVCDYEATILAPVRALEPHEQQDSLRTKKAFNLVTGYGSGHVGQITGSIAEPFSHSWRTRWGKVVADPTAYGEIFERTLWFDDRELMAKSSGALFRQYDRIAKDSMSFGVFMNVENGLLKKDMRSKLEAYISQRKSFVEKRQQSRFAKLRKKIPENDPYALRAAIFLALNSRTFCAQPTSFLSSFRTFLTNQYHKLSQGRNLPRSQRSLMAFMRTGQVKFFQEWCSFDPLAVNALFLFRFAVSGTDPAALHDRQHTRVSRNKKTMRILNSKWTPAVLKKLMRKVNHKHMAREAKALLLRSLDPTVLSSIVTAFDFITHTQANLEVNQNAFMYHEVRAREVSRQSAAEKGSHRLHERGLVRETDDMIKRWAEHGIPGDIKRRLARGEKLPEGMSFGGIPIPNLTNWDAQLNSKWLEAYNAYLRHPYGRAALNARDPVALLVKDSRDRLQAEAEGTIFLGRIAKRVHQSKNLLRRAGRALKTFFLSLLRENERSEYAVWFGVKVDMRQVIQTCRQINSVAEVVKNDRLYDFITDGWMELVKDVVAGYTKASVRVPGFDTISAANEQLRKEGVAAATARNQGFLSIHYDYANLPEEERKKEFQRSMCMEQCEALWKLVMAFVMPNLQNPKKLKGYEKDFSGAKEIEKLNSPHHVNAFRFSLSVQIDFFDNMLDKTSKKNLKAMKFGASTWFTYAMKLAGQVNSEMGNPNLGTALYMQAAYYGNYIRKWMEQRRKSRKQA

UniProt P12830, sequence (P12830 155-709): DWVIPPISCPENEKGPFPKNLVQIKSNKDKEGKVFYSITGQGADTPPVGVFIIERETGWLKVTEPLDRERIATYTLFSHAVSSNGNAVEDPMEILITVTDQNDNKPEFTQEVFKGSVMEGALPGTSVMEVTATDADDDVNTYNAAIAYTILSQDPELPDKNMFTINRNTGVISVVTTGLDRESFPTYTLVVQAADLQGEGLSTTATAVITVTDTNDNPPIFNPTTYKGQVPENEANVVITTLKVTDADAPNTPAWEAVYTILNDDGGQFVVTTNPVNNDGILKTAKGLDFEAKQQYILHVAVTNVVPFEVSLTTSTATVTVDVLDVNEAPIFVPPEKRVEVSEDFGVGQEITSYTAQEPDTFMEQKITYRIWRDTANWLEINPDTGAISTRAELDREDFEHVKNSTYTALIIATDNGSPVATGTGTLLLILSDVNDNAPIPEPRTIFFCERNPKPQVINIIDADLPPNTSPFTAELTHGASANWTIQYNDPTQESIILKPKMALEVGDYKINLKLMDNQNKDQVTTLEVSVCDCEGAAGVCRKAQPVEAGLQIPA
UniProt P08581, sequence (P08581 25-932): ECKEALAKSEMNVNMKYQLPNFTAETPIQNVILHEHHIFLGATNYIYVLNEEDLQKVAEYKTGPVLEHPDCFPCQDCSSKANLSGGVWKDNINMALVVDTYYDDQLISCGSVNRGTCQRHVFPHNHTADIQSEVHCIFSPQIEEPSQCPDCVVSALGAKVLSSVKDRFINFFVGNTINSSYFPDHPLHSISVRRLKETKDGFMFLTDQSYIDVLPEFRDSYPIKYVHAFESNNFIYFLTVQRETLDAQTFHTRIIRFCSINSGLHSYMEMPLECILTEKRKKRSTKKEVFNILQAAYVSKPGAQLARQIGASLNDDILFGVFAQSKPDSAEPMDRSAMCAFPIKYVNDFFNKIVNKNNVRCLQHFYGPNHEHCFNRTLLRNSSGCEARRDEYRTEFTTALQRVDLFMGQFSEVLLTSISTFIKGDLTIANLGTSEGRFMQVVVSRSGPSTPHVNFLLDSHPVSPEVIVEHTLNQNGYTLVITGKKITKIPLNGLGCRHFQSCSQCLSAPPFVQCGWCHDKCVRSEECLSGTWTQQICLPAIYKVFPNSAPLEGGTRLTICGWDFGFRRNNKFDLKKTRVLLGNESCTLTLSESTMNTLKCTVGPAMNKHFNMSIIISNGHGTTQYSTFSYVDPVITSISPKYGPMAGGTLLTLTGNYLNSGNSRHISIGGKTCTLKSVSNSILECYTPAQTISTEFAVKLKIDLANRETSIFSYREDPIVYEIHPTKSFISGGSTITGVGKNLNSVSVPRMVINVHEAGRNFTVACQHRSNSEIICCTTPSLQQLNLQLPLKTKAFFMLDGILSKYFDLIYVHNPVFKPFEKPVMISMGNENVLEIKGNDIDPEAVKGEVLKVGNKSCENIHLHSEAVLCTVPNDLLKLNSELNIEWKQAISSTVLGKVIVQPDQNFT

In the case of InlA (from UniProt P0DJM0), the Kd [1] is given as 8000 nM.
For InlB (from UniProt P0DQD3), the Kd (Met (Homo sapiens)) is listed as 25 nM.
In the case of TgAMA1 (from UniProt B6KAM0), the Kd [2] is given as 15 nM.
